PMC10953011, “Oxygen‐insensitive nitroreductase E. coli NfsA, but not NfsB, is inhibited by fumarate” (Proteins, 2022)

Assays:
purified protein [1] = substrate: NC(=O)C1=CN([C@@H]2O[C@H](COP(=O)(O)OP(=O)(O)OC[C@H]3O[C@@H](n4cnc5c(N)ncnc54)[C@H](OP(=O)(O)O)[C@@H]3O)[C@@H](O)[C@H]2O)C=CC1; assay: purified protein; assay type: biochemical, Escherichia coli; conditions: FMN; pH 7.0; 25.0 °C
purified protein [2] = substrate: NC(=O)N/N=C/c1ccc([N+](=O)[O-])o1; assay: purified protein; assay type: biochemical, Escherichia coli; conditions: FMN; pH 7.0; 25.0 °C

B1: NfsA (Escherichia coli K-12) (protein)
chain: MTPTIELICGHRSIRHFTDEPISEAQREAIINSARATSSSSFLQCSSIIRITDKALREELVTLTGGQKHVAQAAEFWVFCADFNRHLQICPDAQLGLAEQLLLGVVDTAMMAQNALIAAESLGLGGVYIGGLRNNIEAVTKLLKLPQHVLPLFGLCLGWPADNPDLKPRLPASILVHENSYQPLDKGALAQYDEQLAEYYLTRGSNNRRDTWSDHIRRTIIKESRPFILDYLHKQGWATR
notes: untagged full-length
Km (purified protein [1]): 29 ± 6 µM | kcat (purified protein [1]): 25 ± 2 s⁻¹ | kcat/Km (purified protein [1]): 860000 ± 100000 M⁻¹ s⁻¹ | Km (purified protein [2]): 27 ± 6 µM | kcat (purified protein [2]): 25 ± 2 s⁻¹ | kcat/Km (purified protein [2]): 930000 ± 100000 M⁻¹ s⁻¹
